{"source": "paper PMC12691602", "about": "“Cryo-EM structure of the QseG-QseE complex reveals an accessory protein-driven two-component system activation mechanism” (mBio, 2025)", "molecules": {"B1": {"name": "QseG (mature lipoprotein, QseG_(37-end)) (natural protein)", "chain": "CVPHASQQLPDSAAQDTLPHYQLADYLPTACADIWSLRGQAVETNPLYWLRTIDCADRLMPVQSRAEARALTDDNWQNAFRRGILLADAKITPPERRAIVTRLEALSAQIPAQVRPVYQIWHDGQALQLALSAERQRYSKLQQTSDSELDALRQQQQALQTQLDLTTRKLESLTDIERQLSTRKPAGNYNADTPHTNDKPATSEDGAAPSPSQDEVTP", "notes": "also called wild-type QseG; source: E. coli C43(DE3), purified (Strep-Tactin, on-column TEV cleavage, SEC); not shown: Strep II, N-terminal, cleaved"}, "B2": {"name": "full-length QseE (QseEfl), C-terminal Strep II tag (natural protein)", "chain": "MLAFLLILLPLLVLAWQAWQSLNALSDQAAVTNRSTLIDARRSEAMTNVALEMERSYRQYCVLDDPTLAKVYQSQRKRYSDMLDAHAGVLPDDKLYQALRQDLNALAQLQCKDSGPEAAAAARLEAFANANTEMVQATRTVVYSRGQQLQQEIAERGQFFGWQALVLFLVSLAMVLLFTRMIIGPVKGIERMINRLGEGRSLGNTVTFTGPRELRSVGQRIIWLSERLAWLESQRHQFLRHLSHELKTPLASMREGTELLADQVVGPLTPEQKEVVDILDDSSRNLQKLIEQLLDYNRKLVDSATELEAVDIAPLVDMVVSAHSLPARAKMMHTDVDLEAERCIAEPMLLMSVLDNLYSNAVHYGAESGNICIRSRSQGSTVYIDVVNSGEPIPQTEREMIFEPFFQGSHQRKGAVKGSGLGLSIARDCIRRMQGEIQLVDDKAQEVWFRISLPLPASDKH", "notes": "Dimer by cross-linking and in the cryo-EM structure; also called strep-tagged QseE; source: E. coli C43(DE3), purified from membranes in LMNG/CHS (Strep-Tactin, SEC); not shown: Strep II, C-terminal, kept"}, "B3": {"name": "QseG (protein)", "chain": "CVQNHNKPAIDTPAEEKIPVYQLADYLSTECSDIWALQGKSTETNPLYWLRAMDCADRLMPAQSRQQARQYDDGSWQNTFKQGILLADAKITPYERRQLVARIEALSTEIPAQVRPLYQLWRDGQALQLQLAEERQRYSKLQQSSDSELDTLRQQHHVLQQQLELTTRKLENLTDIERQLSTRKPAGNFSPDTPHESEKPAPSTHEVTPDEP"}, "B4": {"name": "QseG_(37-221) (domain or fragment)", "chain": "CVPHASQQLPDSAAQDTLPHYQLADYLPTACADIWSLRGQAVETNPLYWLRTIDCADRLMPVQSRAEARALTDDNWQNAFRRGILLADAKITPPERRAIVTRLEALSAQIPAQVRPVYQIWHDGQALQLALSAERQRYSKLQQTSDSELDALRQQQQALQTQLDLTTRKLESLTDIERQLSTRKP", "notes": "QseG of S. Typhimurium SL1344, residues 37-221; Homodimer in the cryo-EM structure of the complex; source: E. coli C43(DE3), purified (Strep-Tactin, on-column TEV cleavage, SEC); not shown: Strep II, N-terminal, cleaved"}}, "key": {"[1]": {"biological_target": "strep-tagged QseE_(1-196) (Salmonella enterica serovar Typhimurium SL1344)", "assay": "cross-linking; QseE constructs in solution (Fig. S2A); cross-linker and conditions not shown"}, "QseE-eGFP": {"biological_target": "T1, QseE-eGFP (Salmonella enterica serovar Typhimurium …, UniProt A0A4Z0KJZ8 1-461)", "T1 construct": "QseE of S. Typhimurium SL1344 fused to eGFP; source: E. coli, purified", "T1 sequence": "B2 chain", "assay": "MST; QseG_(37-end) in serial dilution mixed with QseE-eGFP; 20 mM HEPES pH 7.5, 150 mM NaCl, 0.02% DDM, 0.05% Tween 20; 25°C, 30 min; Monolith NT.115, medium MST power, 40% LED", "conditions": "both partners purified"}, "[2]": {"biological_target": "the molecule itself", "assay": "cryo-EM structure; QseG_(37-221) and QseE mixed at 3:1 molar ratio, complex separated by SEC; 3.9 Å map with C2 symmetry imposed; model limited to QseG 58-220 and QseE 34-173"}, "QseE": {"biological_target": "T2, QseE (Escherichia coli, UniProt Q8XA47)", "T2 chain": "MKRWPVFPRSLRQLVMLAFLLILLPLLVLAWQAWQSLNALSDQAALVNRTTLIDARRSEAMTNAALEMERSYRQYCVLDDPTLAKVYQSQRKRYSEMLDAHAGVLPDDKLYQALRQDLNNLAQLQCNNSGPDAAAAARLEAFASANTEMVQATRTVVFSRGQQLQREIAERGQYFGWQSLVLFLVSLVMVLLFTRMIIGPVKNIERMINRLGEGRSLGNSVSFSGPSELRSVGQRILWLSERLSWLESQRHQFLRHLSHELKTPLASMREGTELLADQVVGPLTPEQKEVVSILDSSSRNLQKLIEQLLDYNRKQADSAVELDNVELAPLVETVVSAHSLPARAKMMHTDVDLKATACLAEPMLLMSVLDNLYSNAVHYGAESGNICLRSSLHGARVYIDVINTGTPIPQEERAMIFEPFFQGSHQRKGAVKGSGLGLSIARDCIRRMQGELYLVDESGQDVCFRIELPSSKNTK"}}}
{"molecule": "strep-tagged QseE_(1-196) (from UniProt A0A4Z0KJZ8 1-196) (domain or fragment)", "values": [{"measurement": "stoichiometry N", "setting": "[1]", "result": 2}]}
{"molecule": "B1", "values": [{"measurement": "Kd", "setting": "QseE-eGFP", "result": 108, "unit": "nM"}]}
{"molecule": "B2", "values": [{"measurement": "stoichiometry N", "setting": "[2]", "result": 2}]}
{"molecule": "B3", "values": [{"measurement": "Kd", "setting": "QseE", "result": 109, "unit": "nM"}]}
{"molecule": "B4", "values": [{"measurement": "stoichiometry N", "setting": "[2]", "result": 2}]}
